Assay results taken from patent US12692524B2, “Sialyltransferases and their use in producing sialylated oligosaccharides” (Chr. Hansen A/S, priority 2017, dated 2026).

B1: SiaT9: sialyltransferase of Vibrio sp. JT-FAJ-16, acc. BAF91160, SEQ ID NO: 2 (protein, listed as Vibrio sp.)
chain: MNNDNSTTTNNNAIEIYVDRATLPTIQQMTKIVSQKTSNKKLISWSRYPITDKSLLKKINAEFFKEQFELTESLKNIILSENIDNLIIHGNTLWSIDVVDIIKEVNLLGKNIPIELHFYDDGSAEYVRIYEFSKLPESEQKYKTSLSKNNIKFSIDGTDSFKNTIENIYGFSQLYPTTYHMLRADIFDTTLKINPLRELLSNNIKQMKWDYFKDFNYKQKDIFYSLTNFNPKEIQEDFNKNSNKNFIFIGSNSATATAEEQINIISEAKKENSSIITNSISDYDLFFKGHPSATFNEQIINAHDMIEINNKIPFEALIMTGILPDAVGGMGSSVFFSIPKEVKNKFVFYKSGTDIENNSLIQVMLKLNLINRDNIKLISDI
B2: SiaT19: sialyltransferase of Photobacterium leiognathi JT-SHIZ-145, acc. BAF91416, SEQ ID NO: 30 (protein, listed as Photobacterium leiognathi)
chain: MNDNQNTVDVVVSTVNDNVIENNTYQVKPIDTPTTFDSYSWIQTCGTPILKDDEKYSLSFDFVAPELDQDEKFCFEFTGDVDGKRYVTQTNLTVVAPTLEVYVDHASLPSLQQLMKIIQQKNEYSQNERFISWGRIRLTEDNAEKLNAHIYPLAGNNTSQELVDAVIDYADSKNRLNLELNTNTGHSFRNIAPILRATSSKNNILISNINLYDDGSAEYVSLYNWKDTDNKSQKLSDSFLVLKDYLNGISSEKPNGIYSIYNWHQLYHSSYYFLRKDYLTVETKLHDLREYLGGSLKQMSWDTFSQLSKGDKELFLNIVGFDQEKLQQEYQQSELPNFVFTGTTTWAGGETKEYYAQQQVNVVNNAINETSPYYLGREHDLFFKGHPRGGIINDIILGSFNNMIDIPAKVSFEVLMMTGMLPDTVGGIASSLYFSIPAEKVSFIVFTSSDTITDREDALKSPLVQVMMTLGIVKEKDVLFWC

Legend:
[1] = In vitro kinetics (Km, Vmax), acceptor substrate LNT; type: biochemical; conditions: 30° C., pH7.5, protein extract
Method: (§1) To rank the best performing sialyltransferases, their Km values for donor and acceptor substrates were determined in vitro. Escherichia coli BL21(DE3) strain #287 was used for overproduction of the enzymes. Cells were incubated in 100 ml 2YT medium in shaking flasks supplemented with 100 μg m^−1 ampicillin at 30° C. until an OD600 of 0.3 was reached. Then, 0.3 mM IPTG was added and the incubation was continued for 12 to 16 hours. Cells were harvested by centrifugation and mechanically disrupted in a defined volume of 50 mM Tris-HCl pH7.5 using glass beads. The protein extract was kept on ice until the assay started. The in vitro assay was carried out in a total volume of 50 μl including 50 mM Tris-HCl pH7.5, 5 mM MgCl2 and varying concentrations of CMP-Neu5Ac (0.05-30 mM) as well as of lactose or LNT (0.1-50 mM). The assay started with the addition of 35 to 750 μg protein extract. After 1 to 10 minutes of incubation at 30° C., the assay was inactivated at 95° C. for 5 minutes. Product formation was determined by mass spectrometry. Data were evaluated using the enzyme kinetic module of SigmaPlot v12.5 to calculate Km and Vmax.
(§2) Their kinetic parameters for CMP-Neu5Ac and LNT as well as lactose are depicted in Table 6.

[2] = In vitro kinetics (Km, Vmax), donor substrate CMP-Neu5Ac; type: biochemical; conditions: 30° C., pH7.5, protein extract
Method: as §1, §2

[3] = Batch fermentation of LNT-producing E. coli BL21(DE3) #2130 expressing sialyltransferases, TLC of intracellular fraction; type: cell-based, Escherichia coli BL21(DE3); conditions: strain #2130, 3 mM lactose, 3 mM sialic acid, 48 hours after induction, validated by mass spectrometry
Text: Escherichia coli BL21(DE3) strain #534 was used to construct a lacto-N-tetraose (LNT) producing strain. The β-1,3-N-acetylglucosaminyltransferase gene IgtA from Neisseria meningitidis MC58 (acc. no. NP_274923) was codon-optimized for expression in E. coli and prepared synthetically by gene synthesis. Together with the gene galT, encoding a galactose-1-phosphate uridylyltransferase from E. coli K-12 substr. MG1655 (acc. no. NP_415279), that was similarly obtained by gene synthesis, IgtA was inserted by transposition (SEQ ID NO: 188) using plasmid pEcomar-IgtA-galT. To enhance de novo synthesis of UDP-N-acetylglucosamine, genes encoding L-glutamine:D-fuctose-6-phosphate aminotransferase (glmS), phosphoglucosamine mutase from E. coli K-12 substr. MG1655 (glmM) and N-acetylglucosamine-1-phosphate uridyltransferase/glucosamine-1-phosphate acetyltransferase (glmU) from E. coli K-12 substr. MG1655 (acc. no. NP_418185, NP_417643, NP_418186, respectively) were codon-optimized and obtained by gene synthesis. The operon glmUM was cloned under the control of constitutive tetracyclin promoter Ptet while glmS was cloned under the constitutive PT5 promoter. […]

Row | Molecule | Km [1] [mM] | Vmax LNT [1] [µmol/min] | Km [2] [mM] | Vmax CMP-Neu5Ac [2] [µmol/min] | Intracellular formation of sialyllacto-N-tetraose [3]
1 | B1 | 2.9 | 0.15 | 0.96 | 0.16 | LST-a
2 | B2 | 2.9 | 0.04 | 1.1 | 0.09 | LST-b
